From US20250340890A1 come the findings set out here.

For this experiment, the target named is human angiotensin converting enzyme 2 (hACE2) (human) (UniProt Q9BYF1).

In turn, “His-tagged Omicron variant SARS-CoV-2 S1S2 protein (ligand)” returned an Absorbance (λ450 nm), after background correction, Average (absorbance units) of 0.489; an Absorbance (λ450 nm), after background correction, Trial 1 (absorbance units) of 0.482; an Absorbance (λ450 nm), after background correction, Trial 2 (absorbance units) of 0.49; an Absorbance (λ450 nm), after background correction, Trial 3 (absorbance units) of 0.494. Moreover, the Absorbance (λ450 nm), before background correction, Trial 1 (absorbance units) came out at 0.522; the Absorbance (λ450 nm), before background correction, Trial 2 (absorbance units) was determined as 0.53; the Absorbance (λ450 nm), before background correction, Trial 3 (absorbance units) came to 0.534.
As for “His-tagged Delta variant SARS-CoV-2 S1S2 protein (ligand)”, the Absorbance (λ450 nm), after background correction, Average (absorbance units) was found to be 0.551; the Absorbance (λ450 nm), after background correction, Trial 1 (absorbance units) amounted to 0.538; the Absorbance (λ450 nm), after background correction, Trial 2 (absorbance units) was determined as 0.558; the Absorbance (λ450 nm), after background correction, Trial 3 (absorbance units) stood at 0.557. This substance also gave an Absorbance (λ450 nm), before background correction, Trial 1 (absorbance units) of 0.578; an Absorbance (λ450 nm), before background correction, Trial 2 (absorbance units) of 0.598; an Absorbance (λ450 nm), before background correction, Trial 3 (absorbance units) of 0.597.
